Paper PMC6113293, “Phosphorylation of ULK1 affects autophagosome fusion and links chaperone-mediated autophagy to macroautophagy” (Nature Communications, 2018)
One block for each binder: values may come before it.

Legend:
[1] = target: T1, GST-ULK1 279–525 (from bacteria) (UniProt O75385 279-525); test: pull-down; GST-ULK1 279–525 and His-STX17 157–275 purified from bacteria, incubated in IP lysis buffer with glutathione beads for 4 h at 4 °C; western blot with His antibody; details: both partners purified
T1 construct: in the vector pGEX-4t-2; source: E. coli BL21 codon plus, purified
T1 sequence (looked up): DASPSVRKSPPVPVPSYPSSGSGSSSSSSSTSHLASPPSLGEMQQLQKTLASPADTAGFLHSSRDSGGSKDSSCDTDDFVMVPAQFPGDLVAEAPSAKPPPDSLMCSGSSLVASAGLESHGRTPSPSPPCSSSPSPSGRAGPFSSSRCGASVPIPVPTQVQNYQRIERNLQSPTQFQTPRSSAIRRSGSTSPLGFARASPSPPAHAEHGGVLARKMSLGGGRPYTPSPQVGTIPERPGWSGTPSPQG

[2] = target: T2, GFP-STX17, P56962; test: proximity ligation; GFP-STX17 co-transfected with Myc-ULK1 variants or Myc vector into HeLa; anti-Myc and anti-GFP antibodies; with or without serum starvation; details: remark: other sources report otherwise
T2 chain: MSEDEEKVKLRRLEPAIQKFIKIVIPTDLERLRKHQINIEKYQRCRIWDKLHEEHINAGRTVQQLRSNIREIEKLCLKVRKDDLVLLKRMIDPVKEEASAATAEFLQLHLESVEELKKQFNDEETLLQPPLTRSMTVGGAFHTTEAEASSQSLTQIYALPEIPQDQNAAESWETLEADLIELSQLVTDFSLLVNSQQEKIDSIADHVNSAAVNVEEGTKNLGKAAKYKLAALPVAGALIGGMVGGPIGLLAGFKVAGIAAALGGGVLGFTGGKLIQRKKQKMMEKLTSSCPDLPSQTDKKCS

- binding result [1]: binds
B1: His-STX17 157–275 (domain or fragment, UniProt P56962 157-275, looked up)
chain: YALPEIPQDQNAAESWETLEADLIELSQLVTDFSLLVNSQQEKIDSIADHVNSAAVNVEEGTKNLGKAAKYKLAALPVAGALIGGMVGGPIGLLAGFKVAGIAAALGGGVLGFTGGKLI
notes: in the vector pET-26b(+); source: E. coli BL21 codon plus, purified; not shown: His6, C-terminal, kept

- fold increase of the PLA signal with serum starvation over no starvation [2]: 2.5 fold
B2: Myc-ULK1 WT, O75385 1-1050 (enzyme)
chain: MEPGRGGTETVGKFEFSRKDLIGHGAFAVVFKGRHREKHDLEVAVKCINKKNLAKSQTLLGKEIKILKELKHENIVALYDFQEMANSVYLVMEYCNGGDLADYLHAMRTLSEDTIRLFLQQIAGAMRLLHSKGIIHRDLKPQNILLSNPAGRRANPNSIRVKIADFGFARYLQSNMMAATLCGSPMYMAPEVIMSQHYDGKADLWSIGTIVYQCLTGKAPFQASSPQDLRLFYEKNKTLVPTIPRETSAPLRQLLLALLQRNHKDRMDFDEFFHHPFLDASPSVRKSPPVPVPSYPSSGSGSSSSSSSTSHLASPPSLGEMQQLQKTLASPADTAGFLHSSRDSGGSKDSSCDTDDFVMVPAQFPGDLVAEAPSAKPPPDSLMCSGSSLVASAGLESHGRTPSPSPPCSSSPSPSGRAGPFSSSRCGASVPIPVPTQVQNYQRIERNLQSPTQFQTPRSSAIRRSGSTSPLGFARASPSPPAHAEHGGVLARKMSLGGGRPYTPSPQVGTIPERPGWSGTPSPQGAEMRGGRSPRPGSSAPEHSPRTSGLGCRLHSAPNLSDLHVVRPKLPKPPTDPLGAVFSPPQASPPQPSHGLQSCRNLRGSPKLPDFLQRNPLPPILGSPTKAVPSFDFPKTPSSQNLLALLARQGVVMTPPRNRTLPDLSEVGPFHGQPLGPGLRPGEDPKGPFGRSFSTSRLTDLLLKAAFGTQAPDPGSTESLQEKPMEIAPSAGFGGSLHPGARAGGTSSPSPVVFTVGSPPSGSTPPQGPRTRMFSAGPTGSASSSARHLVPGPCSEAPAPELPAPGHGCSFADPITANLEGAVTFEAPDLPEETLMEQEHTEILRGLRFTLLFVQHVLEIAALKGSASEAAGGPEYQLQESVVADQISLLSREWGFAEQLVLYLKVAELLSSGLQSAIDQIRAGKLCLSSTVKQVVRRLNELYKASVVSCQGLSLRLQRFFLDKQRLLDRIHSITAERLIFSHAVQMVQSAALDEMFQHREGCVPRYHKALLLLEGLQHMLSDQADIENVTKCKLCIERRLSALLTGICA
